Reference: the supplement of paper PMC10065799, “High-throughput profiling of sequence recognition by tyrosine kinases and SH2 domains using bacterial peptide display” (eLife, 2023)

Assays:
[1] = tested on: AncSZ; assay: phosphorylation enrichment, bacterial display (enrichment ratio); higher = better substrate or ligand; peptides without Tyr show the background
[2] = molecular target: EPHB1 (UniProt P54762); assay: as above
[3] = molecular target: EPHB2 (UniProt P29323); assay: as above
[4] = molecular target: FGFR1 (UniProt P11362); assay: as above
[5] = molecular target: FGFR3 (UniProt P22607); assay: as above
[6] = tested on: Fer (mouse); assay: as above
[7] = molecular target: Fes (UniProt P07332); assay: as above
[8] = molecular target: Fyn (UniProt P06241); assay: as above
[9] = molecular target: Hck (UniProt P08631); assay: as above
[10] = molecular target: Jak2 (UniProt O60674); assay: as above
[11] = molecular target: MERTK (UniProt Q12866); assay: as above
[12] = tested on: c-Abl (mouse); assay: as above
[13] = tested on: c-Src; assay: as above
[14] = molecular target: Grb2 SH2 (UniProt P62993); assay: SH2 binding enrichment of the phosphorylated peptide, bacterial display (enrichment ratio); higher = better substrate or ligand; peptides without Tyr show the background
[15] = molecular target: SHP2-C SH2; assay: as above
[16] = molecular target: c-Src SH2; assay: as above
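Wherever SH2 binding enrichment of the phosphorylated peptide, bacterial display is given: peptide library displayed on the E. coli surface as eCPX fusions, selected cells deep-sequenced, score is each peptide's frequency after selection divided by its frequency in the input.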
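Wherever phosphorylation enrichment, bacterial display is given: 11-residue human phosphosite peptides and single-mutation variants displayed on the E. coli surface, counted by deep sequencing, each peptide's frequency after selection divided by its frequency in the unselected input library; frequency after pTyr selection over input frequency; kinase dosed for 20-30% of maximal phosphorylation in three min.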

Hck, sequence (P08631 whole entry, looked up): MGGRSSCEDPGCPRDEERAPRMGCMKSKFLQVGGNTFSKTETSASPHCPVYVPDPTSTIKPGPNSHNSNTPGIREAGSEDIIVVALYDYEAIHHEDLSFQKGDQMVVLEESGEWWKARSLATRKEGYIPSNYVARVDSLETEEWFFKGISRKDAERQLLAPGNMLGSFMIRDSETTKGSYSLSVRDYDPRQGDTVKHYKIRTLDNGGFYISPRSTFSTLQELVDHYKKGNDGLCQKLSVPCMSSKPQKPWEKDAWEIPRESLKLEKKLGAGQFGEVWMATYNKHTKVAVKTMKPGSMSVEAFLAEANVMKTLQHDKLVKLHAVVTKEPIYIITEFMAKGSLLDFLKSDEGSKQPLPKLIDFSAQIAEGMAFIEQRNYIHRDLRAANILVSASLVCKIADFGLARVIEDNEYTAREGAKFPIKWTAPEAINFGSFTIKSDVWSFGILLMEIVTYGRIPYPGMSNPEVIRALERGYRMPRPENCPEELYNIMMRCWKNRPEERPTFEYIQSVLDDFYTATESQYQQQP
MERTK, sequence (Q12866 whole entry, looked up): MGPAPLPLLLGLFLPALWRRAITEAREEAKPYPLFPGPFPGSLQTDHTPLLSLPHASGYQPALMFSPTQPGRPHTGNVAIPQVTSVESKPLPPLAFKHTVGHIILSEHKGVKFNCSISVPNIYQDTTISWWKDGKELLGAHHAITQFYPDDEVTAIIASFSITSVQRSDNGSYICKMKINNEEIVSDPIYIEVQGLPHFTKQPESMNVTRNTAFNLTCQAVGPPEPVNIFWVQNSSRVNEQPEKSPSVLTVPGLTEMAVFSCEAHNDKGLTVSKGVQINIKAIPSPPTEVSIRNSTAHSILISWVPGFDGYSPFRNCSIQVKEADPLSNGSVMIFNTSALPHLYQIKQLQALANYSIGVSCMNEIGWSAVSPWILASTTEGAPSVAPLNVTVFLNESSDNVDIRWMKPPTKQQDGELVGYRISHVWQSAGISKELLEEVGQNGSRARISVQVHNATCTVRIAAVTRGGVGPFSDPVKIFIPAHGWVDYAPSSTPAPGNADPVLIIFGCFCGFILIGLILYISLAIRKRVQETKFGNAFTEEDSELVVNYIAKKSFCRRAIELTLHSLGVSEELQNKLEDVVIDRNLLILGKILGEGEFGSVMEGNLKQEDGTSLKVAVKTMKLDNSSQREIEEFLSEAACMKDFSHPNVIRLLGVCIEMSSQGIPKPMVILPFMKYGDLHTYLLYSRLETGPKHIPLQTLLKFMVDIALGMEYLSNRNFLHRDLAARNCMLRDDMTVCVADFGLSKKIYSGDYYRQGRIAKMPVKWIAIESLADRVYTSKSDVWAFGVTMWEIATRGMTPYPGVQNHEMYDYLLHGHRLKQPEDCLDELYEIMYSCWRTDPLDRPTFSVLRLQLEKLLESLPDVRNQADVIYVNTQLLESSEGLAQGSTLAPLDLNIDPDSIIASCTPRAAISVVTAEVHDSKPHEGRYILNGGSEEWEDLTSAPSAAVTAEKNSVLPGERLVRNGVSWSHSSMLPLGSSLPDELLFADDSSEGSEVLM
Jak2, sequence (O60674 whole entry, looked up): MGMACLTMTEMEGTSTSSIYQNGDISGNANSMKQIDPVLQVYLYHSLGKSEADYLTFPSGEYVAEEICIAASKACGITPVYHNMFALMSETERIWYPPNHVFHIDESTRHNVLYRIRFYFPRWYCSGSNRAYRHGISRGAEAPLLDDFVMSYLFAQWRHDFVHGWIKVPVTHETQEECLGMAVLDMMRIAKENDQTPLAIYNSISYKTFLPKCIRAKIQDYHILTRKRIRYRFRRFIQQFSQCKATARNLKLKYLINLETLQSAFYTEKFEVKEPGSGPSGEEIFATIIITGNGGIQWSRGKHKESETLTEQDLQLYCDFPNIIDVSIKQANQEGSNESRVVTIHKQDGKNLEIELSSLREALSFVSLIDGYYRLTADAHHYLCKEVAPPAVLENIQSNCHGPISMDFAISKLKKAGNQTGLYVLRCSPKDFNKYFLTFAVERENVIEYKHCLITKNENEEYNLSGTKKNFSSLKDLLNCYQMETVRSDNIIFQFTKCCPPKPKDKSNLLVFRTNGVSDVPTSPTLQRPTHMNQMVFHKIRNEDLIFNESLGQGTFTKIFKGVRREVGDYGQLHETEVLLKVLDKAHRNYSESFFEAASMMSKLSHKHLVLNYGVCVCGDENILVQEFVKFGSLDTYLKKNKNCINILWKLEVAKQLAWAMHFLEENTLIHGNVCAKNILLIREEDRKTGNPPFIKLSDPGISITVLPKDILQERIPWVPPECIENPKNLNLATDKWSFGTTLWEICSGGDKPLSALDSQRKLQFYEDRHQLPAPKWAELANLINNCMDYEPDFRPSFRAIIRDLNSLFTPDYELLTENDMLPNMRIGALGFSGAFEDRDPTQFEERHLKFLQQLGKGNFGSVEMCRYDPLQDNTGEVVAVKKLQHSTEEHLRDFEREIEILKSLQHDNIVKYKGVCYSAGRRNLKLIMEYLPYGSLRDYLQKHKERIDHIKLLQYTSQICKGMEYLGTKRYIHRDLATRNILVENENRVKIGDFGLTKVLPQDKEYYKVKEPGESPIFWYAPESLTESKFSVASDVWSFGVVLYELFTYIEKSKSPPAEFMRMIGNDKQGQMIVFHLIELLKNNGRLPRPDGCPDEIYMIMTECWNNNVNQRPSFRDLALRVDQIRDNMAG
FGFR1, sequence (P11362 whole entry, looked up): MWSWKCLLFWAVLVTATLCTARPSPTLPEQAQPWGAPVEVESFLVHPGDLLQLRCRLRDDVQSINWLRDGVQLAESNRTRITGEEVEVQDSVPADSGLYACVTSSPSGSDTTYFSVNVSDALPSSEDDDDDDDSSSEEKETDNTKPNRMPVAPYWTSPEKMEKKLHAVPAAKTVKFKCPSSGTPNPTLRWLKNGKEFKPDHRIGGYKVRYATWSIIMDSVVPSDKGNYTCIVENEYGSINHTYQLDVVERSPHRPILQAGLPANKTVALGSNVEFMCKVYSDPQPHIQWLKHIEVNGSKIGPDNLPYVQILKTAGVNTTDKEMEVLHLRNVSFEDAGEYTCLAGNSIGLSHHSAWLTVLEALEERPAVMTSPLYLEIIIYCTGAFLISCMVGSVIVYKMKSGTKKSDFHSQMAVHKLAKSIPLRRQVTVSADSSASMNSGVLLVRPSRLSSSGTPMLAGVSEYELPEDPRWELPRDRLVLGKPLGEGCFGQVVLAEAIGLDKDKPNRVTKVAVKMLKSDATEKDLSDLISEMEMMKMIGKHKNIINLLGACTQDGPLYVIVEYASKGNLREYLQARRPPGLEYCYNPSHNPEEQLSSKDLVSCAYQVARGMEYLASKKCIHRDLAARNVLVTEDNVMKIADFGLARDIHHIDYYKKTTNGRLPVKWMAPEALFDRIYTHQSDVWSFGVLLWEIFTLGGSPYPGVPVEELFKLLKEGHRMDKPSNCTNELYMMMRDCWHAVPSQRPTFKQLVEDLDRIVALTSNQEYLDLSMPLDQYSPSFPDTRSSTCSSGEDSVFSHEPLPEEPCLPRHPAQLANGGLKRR
Fes, sequence (P07332 whole entry, looked up): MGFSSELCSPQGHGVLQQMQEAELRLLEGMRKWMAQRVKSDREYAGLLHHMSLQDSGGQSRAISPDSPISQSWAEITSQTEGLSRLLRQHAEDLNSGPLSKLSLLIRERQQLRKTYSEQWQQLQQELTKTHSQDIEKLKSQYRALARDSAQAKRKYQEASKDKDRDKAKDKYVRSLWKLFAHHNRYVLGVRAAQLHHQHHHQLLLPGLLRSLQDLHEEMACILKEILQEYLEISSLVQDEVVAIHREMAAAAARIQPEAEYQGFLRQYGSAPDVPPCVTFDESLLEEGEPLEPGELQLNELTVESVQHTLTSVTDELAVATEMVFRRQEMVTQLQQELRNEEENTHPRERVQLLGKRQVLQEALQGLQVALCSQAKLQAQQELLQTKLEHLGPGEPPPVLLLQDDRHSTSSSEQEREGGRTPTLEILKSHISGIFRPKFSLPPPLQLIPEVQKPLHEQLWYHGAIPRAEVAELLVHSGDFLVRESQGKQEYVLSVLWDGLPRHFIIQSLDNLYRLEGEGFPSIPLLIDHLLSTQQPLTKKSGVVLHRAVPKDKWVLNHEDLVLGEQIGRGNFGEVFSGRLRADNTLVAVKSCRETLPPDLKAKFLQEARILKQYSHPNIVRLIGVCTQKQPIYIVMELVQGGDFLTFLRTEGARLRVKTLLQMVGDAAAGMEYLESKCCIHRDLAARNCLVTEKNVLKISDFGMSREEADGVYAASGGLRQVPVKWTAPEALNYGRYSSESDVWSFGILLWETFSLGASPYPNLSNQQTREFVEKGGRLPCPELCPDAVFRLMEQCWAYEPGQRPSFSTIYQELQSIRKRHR
Fyn, sequence (P06241 whole entry, looked up): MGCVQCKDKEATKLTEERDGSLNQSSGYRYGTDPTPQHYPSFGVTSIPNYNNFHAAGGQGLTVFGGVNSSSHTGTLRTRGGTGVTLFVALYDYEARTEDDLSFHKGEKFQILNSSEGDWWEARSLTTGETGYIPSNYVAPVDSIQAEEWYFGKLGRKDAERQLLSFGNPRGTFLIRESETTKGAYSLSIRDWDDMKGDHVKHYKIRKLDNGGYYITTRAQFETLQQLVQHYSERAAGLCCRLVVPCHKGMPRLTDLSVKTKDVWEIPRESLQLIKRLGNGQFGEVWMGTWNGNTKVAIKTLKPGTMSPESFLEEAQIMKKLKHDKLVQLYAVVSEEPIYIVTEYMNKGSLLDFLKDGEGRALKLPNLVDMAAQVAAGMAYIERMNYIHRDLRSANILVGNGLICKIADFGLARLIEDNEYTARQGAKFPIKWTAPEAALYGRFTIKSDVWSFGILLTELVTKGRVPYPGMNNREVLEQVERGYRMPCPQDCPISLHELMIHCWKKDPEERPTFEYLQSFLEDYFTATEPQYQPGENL
Grb2 SH2, sequence (P62993 whole entry, looked up): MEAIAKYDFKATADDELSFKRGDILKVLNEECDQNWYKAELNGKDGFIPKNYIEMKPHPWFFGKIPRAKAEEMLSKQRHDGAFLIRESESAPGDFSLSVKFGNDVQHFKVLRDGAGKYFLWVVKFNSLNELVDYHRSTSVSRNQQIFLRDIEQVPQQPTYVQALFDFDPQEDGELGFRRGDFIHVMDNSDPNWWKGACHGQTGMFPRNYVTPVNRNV

Sequence | phosphorylation enrichment [1] | phosphorylation enrichment [2] | phosphorylation enrichment [3] | phosphorylation enrichment [4] | phosphorylation enrichment [5] | phosphorylation enrichment [6] | phosphorylation enrichment [7] | phosphorylation enrichment [8] | phosphorylation enrichment [9] | phosphorylation enrichment [10] | phosphorylation enrichment [11] | phosphorylation enrichment [12] | phosphorylation enrichment [13] | SH2 binding enrichment [14] | SH2 binding enrichment [15] | SH2 binding enrichment [16]
FFFDLYGGEKF [PTPN11_Y66_D61Y_YF] | 0.923 | 0.53 | 0.418 | 0.415 | 0.534 | 0.418 | 0.979 | 0.66 | 0.981 | 0.993 | 0.371 | 0.665 | 1.15 | 0.831 | 1.36 | 0.631
FFRCHYPLTTL [TNS4_Y644_R642C] | 0.914 | 0.509 | 0.512 | 0.463 | 0.696 | 0.39 | 1.01 | 0.374 | 0.48 | 0.79 | 0.4 | 0.595 | 0.43 | 0.907 | 1.03 | 0.738
FFTEEYVRAHP [DOCK2_Y1555_D1558A] | 1.54 | 0.66 | 0.664 | 0.556 | 0.944 | 0.553 | 1.32 | 0.697 | 0.599 | 1.07 | 0.397 | 1.01 | 0.485 | 0.728 | 0.619 | 0.431
FGGRDYSLDEF [MYOF_Y1705_YF] | 0.964 | 0.597 | 0.602 | 0.512 | 0.733 | 0.493 | 1.18 | 0.401 | 0.473 | 0.946 | 0.405 | 0.68 | 0.542 | 0.782 | 0.606 | 0.75
FGGTVCHSPVS [PRC1_Y511_Y511C] | 0.688 | 0.38 | 0.493 | 0.524 | 0.524 | 0.452 | 0.627 | 0.447 | 0.505 | 0.506 | 0.456 | 0.548 | 0.576 | 0.756 | 0.508 | 0.596
FGSLLYKFAFK [FANCD2_Y458_YF] | 0.91 | 0.464 | 0.445 | 0.527 | 0.678 | 0.336 | 1.09 | 0.306 | 0.37 | 0.964 | 0.4 | 0.726 | 0.453 | 0.983 | 0.732 | 0.449
FGSVDCWEKFF [EEF1AKNMT_Y16_Y16C] | 1.14 | 0.474 | 0.624 | 0.511 | 0.569 | 0.462 | 1.24 | 0.436 | 0.426 | 1.04 | 0.459 | 0.801 | 0.461 | 0.944 | 1.03 | 0.83
FKEQGYHRLPS [RIN1_Y681_P686S_YF] | 1.23 | 1.26 | 0.603 | 2.57 | 0.583 | 0.822 | 1.49 | 0.305 | 0.63 | 2.09 | 1.05 | 1.3 | 0.818 | 1.01 | 0.762 | 1.24
FKWAVYCIIGR [NUP93_Y391_R388W_YF] | 1.28 | 1.19 | 0.673 | 0.614 | 0.714 | 1.02 | 1.28 | 0.554 | 0.699 | 1.03 | 0.534 | 0.902 | 0.652 | 1.98 | 1.39 | 1.21
FLGEEYVKAVG [TF_Y674_YF] | 0.842 | 0.489 | 0.453 | 0.453 | 0.582 | 0.58 | 0.879 | 0.373 | 0.405 | 0.853 | 0.412 | 0.598 | 0.404 | 0.785 | 1.46 | 0.445
FLTQHYDAEPQ [ANG_Y38_K41E] | 0.853 | 0.413 | 0.554 | 0.583 | 0.684 | 0.511 | 0.989 | 0.478 | 0.534 | 0.627 | 0.502 | 0.785 | 0.601 | 0.992 | 0.635 | 0.612
FQGGTYSKACT [FGG_Y380_S384C_YF] | 0.528 | 0.404 | 0.366 | 0.448 | 0.439 | 0.46 | 0.589 | 0.35 | 0.473 | 0.503 | 0.446 | 0.633 | 0.447 | 0.918 | 0.746 | 0.783
FQHLRYIKQLG [SAMHD1_Y146_R143H] | 0.685 | 0.374 | 0.371 | 0.393 | 0.611 | 0.436 | 0.775 | 0.393 | 0.395 | 0.706 | 0.363 | 0.502 | 0.331 | 0.722 | 0.746 | 0.496
FQNSLYAPDFS [FAM92A_Y226_R222Q_YF] | 0.9 | 4.07 | 4.54 | 1.48 | 1.47 | 3.35 | 0.945 | 2.08 | 2.12 | 1.08 | 7.8 | 0.781 | 2.18 | 0.891 | 0.614 | 0.591
FRASFYRKGGC [ALK_Y1283_YF] | 0.866 | 0.459 | 0.527 | 0.531 | 0.532 | 0.466 | 0.902 | 0.618 | 0.477 | 0.683 | 0.579 | 0.663 | 0.586 | 0.616 | 0.502 | 0.499
FRQNGYIPGSN [PCDHGA1_Y895_V894G_YF] | 0.5 | 0.396 | 0.359 | 0.416 | 0.437 | 0.377 | 0.548 | 0.403 | 0.392 | 0.544 | 0.393 | 0.499 | 0.435 | 0.807 | 0.607 | 0.481
FSEVRYMKEPY [HIPK4_Y170_V171M] | 0.852 | 0.425 | 0.496 | 0.485 | 0.72 | 0.437 | 0.988 | 0.36 | 0.536 | 0.781 | 0.463 | 0.695 | 0.432 | 1.06 | 0.757 | 0.484

Sequence | phosphorylation enrichment [1] | phosphorylation enrichment [2] | phosphorylation enrichment [3] | phosphorylation enrichment [4] | phosphorylation enrichment [5] | phosphorylation enrichment [6] | phosphorylation enrichment [7] | phosphorylation enrichment [8] | phosphorylation enrichment [9] | phosphorylation enrichment [10] | phosphorylation enrichment [11] | phosphorylation enrichment [12] | phosphorylation enrichment [13] | SH2 binding enrichment [14] | SH2 binding enrichment [15] | SH2 binding enrichment [16]
FSNPAYFVLEG [INPPL1_Y986_N982S_YF] | 1.01 | 0.642 | 0.548 | 6.43 | 4.24 | 0.564 | 0.895 | 0.416 | 0.451 | 3.86 | 3.43 | 0.865 | 0.809 | 0.928 | 0.973 | 1.85
FSPPYYHRNCM [HGD_Y334_R330S] | 0.807 | 0.558 | 0.664 | 0.66 | 0.609 | 0.482 | 0.957 | 0.505 | 0.515 | 0.817 | 0.451 | 0.749 | 0.482 | 0.876 | 0.778 | 0.606
FSTDCYRVGGH [NTRK2_Y707_Y706C_YF] | 1.08 | 0.592 | 0.576 | 0.599 | 0.638 | 0.452 | 1.12 | 0.545 | 0.646 | 1.05 | 0.652 | 0.934 | 0.608 | 0.827 | 0.745 | 0.636
FTDGQYWIRGR [ACSF3_Y466_K462T] | 1.02 | 0.509 | 0.463 | 0.425 | 0.555 | 0.408 | 0.992 | 0.422 | 1.03 | 0.818 | 0.521 | 0.611 | 0.588 | 0.648 | 0.489 | 0.358
FTDPFYDFEIE [ZC3H18_Y372_A368T_YF] | 1.37 | 1.54 | 0.867 | 0.665 | 0.783 | 1.03 | 1.54 | 4.1 | 0.823 | 1.66 | 0.777 | 1.05 | 4.96 | 0.995 | 0.657 | 0.441
FTFNSYFMHWV [IGHV1-46_Y51_T49N_YF] | 1.55 | 0.726 | 0.761 | 1.51 | 1.37 | 1.62 | 1.59 | 0.608 | 0.693 | 6.35 | 1.04 | 0.962 | 0.555 | 1.12 | 1.07 | 0.795
FTHSDYQFSQR [PKP2_Y166_YF] | 0.828 | 0.435 | 0.538 | 0.458 | 0.646 | 0.594 | 0.764 | 0.63 | 0.508 | 0.589 | 0.383 | 0.619 | 0.455 | 1 | 0.723 | 0.62
FTNRNYDLDFD [MYC_Y12_YF] | 1.36 | 0.751 | 0.587 | 0.561 | 0.696 | 0.543 | 1.42 | 0.5 | 0.634 | 1.22 | 0.494 | 1.01 | 0.633 | 0.828 | 0.659 | 3.48
FTNRNYDLDYD [MYC_Y12] | 1.13 | 0.666 | 0.637 | 0.69 | 0.591 | 0.58 | 1.12 | 0.607 | 0.594 | 1.3 | 0.58 | 0.713 | 0.586 | 0.799 | 0.517 | 3.05
FTRNYYVRAVL [CYBA_Y88] | 1.19 | 0.622 | 0.609 | 0.629 | 0.685 | 0.526 | 1.11 | 0.511 | 0.566 | 1.06 | 0.506 | 0.976 | 0.468 | 0.885 | 0.78 | 0.53
FVKEPYIQSRF [HIPK4_Y175_YF] | 0.569 | 0.402 | 0.452 | 0.375 | 0.479 | 0.43 | 0.702 | 0.374 | 0.402 | 0.607 | 0.39 | 0.447 | 0.418 | 0.942 | 0.785 | 0.509
FVPSFYHAFSG [ACTN4_Y265_S262P_YF] | 0.711 | 1.23 | 0.756 | 0.796 | 0.824 | 0.444 | 0.83 | 1.48 | 1.48 | 0.823 | 7.34 | 0.835 | 1.88 | 0.993 | 1.2 | 0.921
FVSIVCNDSGE [TSC2_Y1650_Y1650C] | 1.12 | 0.644 | 0.646 | 0.534 | 0.921 | 0.613 | 1.21 | 0.476 | 0.537 | 1.18 | 0.464 | 0.767 | 0.478 | 0.583 | 0.66 | 0.57
FYNSEYGELSE [FLT4_Y1337] | 1.47 | 0.729 | 0.956 | 0.628 | 0.932 | 0.684 | 1.36 | 1.59 | 0.997 | 1.58 | 0.589 | 0.986 | 1.69 | 0.886 | 0.805 | 0.748
GEFFRYLAEVA [YWHAG_Y133_D129E_YF] | 0.873 | 0.46 | 0.501 | 0.498 | 0.767 | 0.51 | 1.17 | 0.575 | 0.431 | 1.02 | 0.438 | 0.747 | 0.442 | 0.924 | 0.673 | 0.454
GESQGYDIMEP [MSH2_Y863] | 1.14 | 0.541 | 0.555 | 0.424 | 0.642 | 0.441 | 0.94 | 0.454 | 0.487 | 0.827 | 0.472 | 0.605 | 0.419 | 0.683 | 0.85 | 5.63
